Data as given in patent publication US20130184211A1 (NEW YORK UNIVERSITY, published 2013).

B1: N-terminally hexahistidine-tagged 72-amino acid C-terminal tail of human FGF23 (S180 to I251), FGF23^180-251 (peptide)
peptide: SAEDDSERDPLNVLKPRARMTPAPASCSQELPSAEDNSPMASDPLGVVRGGRVNTHAGGTGPEGCRPFAKFI
notes: Expressed in E. coli; also called FGF23 C-terminal tail peptide; C-terminal tail of FGF23; not shown: N-terminal hexahistidine tag (six His)
B2: FGF23 C-terminal region peptide (S180 to S205), FGF23^180-205 (peptide)
peptide: SAEDDSERDPLNVLKPRARMTPAPAS
notes: Made by solid phase synthesis (GenScript)

Tests used:
[1] = biological target: FGFR-Klotho complex of opossum kidney OKP cells (opossum); test: cell-based or functional assay
[2] = biological target: T1, complex of V5-tagged FGFR1c and FLAG-tagged membrane-spanning murine Klotho isolated from transfected … (murine, UniProt O35082 35-1014); test: co-immunoprecipitation competition; competitor FGF23^28-251 (1 nM)
T1 construct: Isolated from cell lysate on anti-V5 agarose beads; also called FGFR1c-Klotho complex (co-immunoprecipitated); binary FGFR-Klotho complex; not shown: FGFR1c, V5-tagged, expressed from a vector in HEK293-Klotho cells
Source text: (§1) Co-immunoprecipitation may also be used to determine that an agent specifically binds the binary FGFR-Klotho complex. One aspect of the present invention utilizes co-immunoprecipitation studies. Subconfluent cultures of a HEK293 cell line ectopically expressing the FLAG-tagged membrane-spanning form of murine Klotho were transfected with expression vectors for V5-tagged FGFR1c, FGFR3c, or FGFR4. Two days later, the cells were lysed, and FGFR-Klotho complexes were isolated from cell lysate using anti-V5 agarose beads. The beads were then incubated with either FGF23¹⁸⁰⁻²⁵¹ or FGF23²⁸⁻²⁵¹ alone, or with mixtures of FGF23²⁸⁻²⁵¹ with either increasing FGF23¹⁸⁰⁻²⁵¹ or increasing FGF23¹⁸⁰⁻²⁰⁵. Bead-bound proteins were resolved on SDS-polyacrylamide gels, transferred to nitrocellulose membranes, and labeled using antibodies to Klotho, FGF23, and V5 epitope tag.

[3] = biological target: T2, complex of V5-tagged FGFR4 and FLAG-tagged membrane-spanning murine Klotho isolated from transfected … (murine, UniProt O35082 35-1014); test: as above
T2 construct: Isolated from cell lysate on anti-V5 agarose beads; also called FGFR4-Klotho complex; binary FGFR-Klotho complex; not shown: FGFR4, V5-tagged, expressed from a vector in HEK293-Klotho cells
Source text: as §1

[4] = biological target: T3, 1:1 binary complex of the ectodomains of FGFR1c and Klotho (human; murine, UniProt O35082 35-982); test: SPR competition dose-response: FGF23^180-205 mixed with a fixed concentration of FGFR1c-Klotho, immobilized FGF23^28-251 as competitor; averaged data of two to three experiments
T3 construct: range 35-982; also called FGFR1c-Klotho complex; binary FGFR1c-Klotho complex; not shown: C-terminal FLAG tag
T3 sequence 1: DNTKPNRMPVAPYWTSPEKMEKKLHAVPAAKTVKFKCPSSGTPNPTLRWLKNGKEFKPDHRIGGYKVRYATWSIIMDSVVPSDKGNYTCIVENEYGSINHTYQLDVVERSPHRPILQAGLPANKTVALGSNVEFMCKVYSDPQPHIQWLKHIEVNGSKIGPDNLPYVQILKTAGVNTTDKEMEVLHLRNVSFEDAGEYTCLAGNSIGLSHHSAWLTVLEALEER
T3 sequence 2: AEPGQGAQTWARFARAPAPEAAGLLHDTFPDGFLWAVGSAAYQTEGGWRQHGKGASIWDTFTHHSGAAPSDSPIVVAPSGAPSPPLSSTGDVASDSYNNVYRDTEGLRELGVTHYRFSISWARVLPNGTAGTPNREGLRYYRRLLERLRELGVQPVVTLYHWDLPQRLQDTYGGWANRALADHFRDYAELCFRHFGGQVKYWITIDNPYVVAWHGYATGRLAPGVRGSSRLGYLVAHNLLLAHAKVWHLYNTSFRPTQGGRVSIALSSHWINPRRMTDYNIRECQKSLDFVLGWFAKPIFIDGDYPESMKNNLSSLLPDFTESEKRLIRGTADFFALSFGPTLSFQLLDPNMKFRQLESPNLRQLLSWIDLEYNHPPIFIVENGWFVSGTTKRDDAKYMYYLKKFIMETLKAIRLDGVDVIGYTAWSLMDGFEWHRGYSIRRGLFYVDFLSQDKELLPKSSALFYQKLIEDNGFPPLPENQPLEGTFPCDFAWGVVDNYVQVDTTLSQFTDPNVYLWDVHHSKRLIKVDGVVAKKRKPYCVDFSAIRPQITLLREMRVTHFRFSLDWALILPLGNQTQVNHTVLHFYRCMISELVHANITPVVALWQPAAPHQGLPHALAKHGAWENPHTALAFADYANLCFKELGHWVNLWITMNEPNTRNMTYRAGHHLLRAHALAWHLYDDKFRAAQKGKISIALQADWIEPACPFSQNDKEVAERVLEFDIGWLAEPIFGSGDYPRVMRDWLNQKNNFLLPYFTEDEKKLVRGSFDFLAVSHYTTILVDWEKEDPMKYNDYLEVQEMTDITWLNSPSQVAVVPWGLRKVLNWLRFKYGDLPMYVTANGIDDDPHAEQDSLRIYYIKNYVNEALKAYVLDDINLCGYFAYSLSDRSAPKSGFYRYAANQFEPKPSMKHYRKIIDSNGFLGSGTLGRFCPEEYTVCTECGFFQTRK
Source text: To analyze FGF23 binding to the binary FGFR1c-Klotho complex, FGF23²⁸⁻²⁵¹ was coupled to a chip, and increasing concentrations of 1:1 complex of the ectodomains of FGFR1c and Klotho in HBS-EP buffer were passed over the chip. To measure binding of the C-terminal tail of FGF23 to the binary FGFR1c-Klotho complex, FGF23¹⁸⁰⁻²⁵¹ was immobilized on a chip, and increasing concentrations of 1:1 complex of the ectodomains of FGFR1c and Klotho in HBS-EP buffer were passed over the chip. To examine whether the C-terminal tail of FGF23 can compete with full-length FGF23 for binding to the binary FGFR1c-Klotho complex, FGF23²⁸⁻²⁵¹ was immobilized on a chip. Increasing concentrations of FGF23¹⁸⁰⁻²⁵¹ were mixed with a fixed concentration of 1:1 complex of the ectodomains of FGFR1c and Klotho in HBS-EP buffer, and the mixtures were passed over the chip. As a control, competition of FGF23 in solution with immobilized FGF23 for binding to the binary FGFR1c-Klotho complex was studied. Increasing concentrations of FGF23²⁸⁻²⁵¹ were mixed with a fixed concentration of 1:1 complex of the ectodomains of FGFR1c and Klotho in HBS-EP buffer, and the mixtures were passed over the FGF23 chip. […] As a control, competition of FGF23 C-terminal tail peptide in solution with immobilized FGF23 C-terminal tail peptide for binding to the binary FGFR1c-Klotho complex was analyzed. […]

| Binder | antagonism of the inhibition of sodium-coupled phosphate uptake by FGF23^28-251 in OKP cells, IC50 [1] [nM] | molar excess over FGF23^28-251 that completely blocked its binding [2] [fold molar excess] | molar excess over FGF23^28-251 that completely blocked its binding [3] [fold molar excess] | IC50 (read off the curve) [4] [nM] |
| --- | --- | --- | --- | --- |
| B1 | ~21 | 76 | 76 | – |
| B2 | – | – | – | ~100 |
